Measurements from patent US20090175786A1.

Legend:
[1] = biological target: gastrin releasing peptide receptor (GRP-R), human (human) (UniProt P30550); assay: displacement of 125I-universal ligand, human tumour sections
[2] = biological target: neuromedin-B preferring receptor (NMB-R), human (human) (UniProt P28336); assay: as above
Chain of neuromedin-B preferring receptor (NMB-R), human (human) (P28336 whole entry): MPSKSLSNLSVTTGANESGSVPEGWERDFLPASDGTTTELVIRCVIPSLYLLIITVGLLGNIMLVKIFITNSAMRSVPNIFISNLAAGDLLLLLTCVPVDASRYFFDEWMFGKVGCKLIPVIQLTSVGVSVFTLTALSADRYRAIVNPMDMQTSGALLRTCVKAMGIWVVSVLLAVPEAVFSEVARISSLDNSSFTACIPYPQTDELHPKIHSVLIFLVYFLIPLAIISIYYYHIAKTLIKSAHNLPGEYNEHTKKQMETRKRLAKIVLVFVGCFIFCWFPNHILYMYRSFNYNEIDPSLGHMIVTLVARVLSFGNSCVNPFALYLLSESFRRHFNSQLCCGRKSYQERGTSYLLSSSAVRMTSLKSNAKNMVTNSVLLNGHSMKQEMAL

Chain of gastrin releasing peptide receptor (GRP-R), human (human) (P30550 whole entry): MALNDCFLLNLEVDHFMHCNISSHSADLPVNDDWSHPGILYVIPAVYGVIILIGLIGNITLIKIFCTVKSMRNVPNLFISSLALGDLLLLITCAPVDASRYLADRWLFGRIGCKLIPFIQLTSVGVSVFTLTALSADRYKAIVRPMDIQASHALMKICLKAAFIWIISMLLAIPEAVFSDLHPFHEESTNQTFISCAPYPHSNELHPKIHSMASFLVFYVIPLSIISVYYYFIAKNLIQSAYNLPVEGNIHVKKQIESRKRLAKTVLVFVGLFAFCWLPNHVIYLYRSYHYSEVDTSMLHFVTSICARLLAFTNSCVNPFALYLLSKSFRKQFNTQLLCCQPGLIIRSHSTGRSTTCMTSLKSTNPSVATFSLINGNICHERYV

IC50 [1]: 0.7 nM
IC50 [2]: 0.8 nM
Substance: [DTyr^6, βAla^11, Phe^13, Nle^14]-BBN(6-14) (peptide)
